Biological target: fibrin fragment E
Test: SPR

Kd: 2 to 20 nM
Substance: soluble recombinant human αVβ3-integrin (from UniProt P06756 31-1048; P05106 27-718) (receptor)
